This is an account of results in the supplement of paper PMC12042874.

± gives the uncertainty stated by the source.

The nature of this series: amyloid nucleation score (Sup35N fusion, yeast selection) (log enrichment); library NNK2; higher = more nucleation; inactive = no reads after selection. Put shortly: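 For the nucleation score, DiMSum gave the log enrichment of output over input reads, centred on the mode score of non-aggregating sequences. Psi-negative yeast expressing Sup35N fused to peptides of 20 random codons were induced with 100 μM copper sulfate for 24 hours and grown 7 days at 30°C on medium lacking adenine and uracil. Input and output plasmid inserts were Illumina-sequenced, and sequences with under 100 input reads were excluded.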
WSVCARYSSGVCIAHCTQMK registered an amyloid nucleation score of 1.3 ± 0.25.

WSVDYDGCLCS came in with an amyloid nucleation score of -0.094 ± 0.45. Consider WSVYKVLYCLTGFRFQRSRL, for which the amyloid nucleation score result is “inactive”. The figure for WSYHF is -0.305 ± 0.8; for WSYRTESIHLYYLRPIFKIV it is -1.11 ± 0.54.

The substance WTCAAFFEMDDRQGIVEIFI had an amyloid nucleation score of 0.644 ± 0.81. In turn, WTDAKALGGLSLLIRWSLEE gave an amyloid nucleation score of 4.13 ± 0.087. With WTHDVWSGSYEWARDGLDVK, the amyloid nucleation score was -0.163 ± 0.79. The figure for WTMRDLCG is 0.526 ± 0.3; for WTPVDVLCMIGMRSVCYINM it is 1.79 ± 0.1. The figure for WTTRFSCITTFLRQCPYM is 0.148 ± 0.79; for WTWTYARDVHTTLN it is 1.13 ± 0.41. Then WTWVLMNIL, with -1.76 ± 0.64; and WVDMAL, with 0.168 ± 0.8.

For WVDNRWEVSLSWAGYTIF, the amyloid nucleation score entry is “inactive”. Then WVHVNSCELDSPGKAWGDTG, with 1.11 ± 0.32. WVNSCVPGLARPNSLFFNRS yielded an amyloid nucleation score of -0.491 ± 0.56. Then WVQHYCSEFLL, with -0.313 ± 0.63; and WVSVRKRHWTTHWLGVGVPN, with 0.611 ± 0.66; and WVTWLISCCYNRLEQGCLAF, with 0.097 ± 0.63.

As to WVVRPPDTLVLDETRVGSGM, the amyloid nucleation score was 0.699 ± 0.34.

On to WWETSIFFWEGIYT, for which the amyloid nucleation score was -0.22 ± 0.8. WWEVIRLSLRS returned an amyloid nucleation score of 2.04 ± 0.13.

Turning to WWRRRCR, the amyloid nucleation score stood at 0.224 ± 0.3. WWTIIICNWSVSKGQDDNRA showed an amyloid nucleation score of 7.238 ± 0.059. In the case of WYCSHFISFHLESKF, the amyloid nucleation score was 4.76 ± 0.11.

As to WYFWGLHMIGVSTAISNPLR, the amyloid nucleation score was -0.683 ± 1.1. Substance WYLYFFVFLLHMNRNLFLVL registered an amyloid nucleation score of -1.63 ± 0.55.

WYSNAVG registered an amyloid nucleation score of 1.57 ± 0.37. WYTDPDSDVAHYFAPQLK came in with an amyloid nucleation score of -0.693 ± 1.1. Then WYVFACLVELYNCGPHGAID, with “inactive”; and WYVLAWDPPLSFMCLGDV, with 0.666 ± 0.53.

Substance YAEHYWHLDNRTDWGIKEGY showed an amyloid nucleation score of -0.78 ± 0.61. Regarding YAGFVFFRTL, the amyloid nucleation score entry was “inactive”. Substance YALVVLIWT registered an amyloid nucleation score of -1.43 ± 1.1. In the case of YAMCPCVYNLDSQGAC, the amyloid nucleation score came out at 3.85 ± 0.12. In turn, YAMGGGKGEDDLSCWYDYAC had an amyloid nucleation score of 0.219 ± 0.47.

In the case of YANMVRERINWI, the amyloid nucleation score was determined as 0.198 ± 0.28. The substance YASTRRIGLEDIVW had an amyloid nucleation score of -0.821 ± 0.78. YAVLSLKAWCLSG returned an amyloid nucleation score of 4.61 ± 0.054. Regarding YCCPYYRKVLF, the amyloid nucleation score is -0.559 ± 0.61. The substance YCFEADVARMIQVFLVFCAS yielded an amyloid nucleation score of 0.259 ± 0.25. Consider YCFFKVKTDLKTMCELGSTA, for which the amyloid nucleation score was -0.122 ± 0.55. Take YCFMVRFRYGPLREMTNCSK: the amyloid nucleation score is -0.34 ± 0.62. The figure for YCFRS is -0.542 ± 0.64. For YCFVDALSCDLPNHEHMDVF, the amyloid nucleation score result is “inactive”. Then YCGTVFHGSRRECGISVRGW, with 1.19 ± 0.33. YCLSDKWTLCG registered an amyloid nucleation score of 0.367 ± 0.41. Consider YCLSSNVGVFKCFNGNVVYS, for which the amyloid nucleation score amounted to 3.54 ± 0.081.

Turning to YCMMPATGICVLDVSVCRDT, the amyloid nucleation score worked out at 8.289 ± 0.054. Then YCMSYCRSTCYHQEFHGPAC, with 4.34 ± 0.072. The figure for YCSWFVWSTANVSMAYIVEF is -0.892 ± 0.41; for YCVLMNS it is -0.173 ± 0.41; for YCYLMMEAWHMEANWYHCFV it is -0.209 ± 0.2. The figure for YDCLCFFPWCRLFNSRKSMA is 0.34 ± 0.14; for YDCLSWRLKEERQATFGFRG it is 0.505 ± 0.51; for YDDKGEIRLPDQSMNCFVSD it is -0.766 ± 1. On to YDKDFCDRRTEPKKFVLRHA, for which the amyloid nucleation score is 0.092 ± 0.4. In turn, YDKSYFVFFNP yielded an amyloid nucleation score of 1.36 ± 0.27.

As for YDLPFYAKEHGLPFVQWGNW, the amyloid nucleation score came to 0.261 ± 0.22. YDQVSFAL had an amyloid nucleation score of -0.584 ± 0.76.

In the case of YDSDFFFHNLGDEPASVGFR, the amyloid nucleation score entry is “inactive”. With YDSFMVGVCYAG, the amyloid nucleation score was -1.42 ± 1.1. Substance YDSWLDTVVFDFFCLCLDKA displayed an amyloid nucleation score of -1.42 ± 0.75. As for YDVGTPRIRDFLCAIDRGNH, the amyloid nucleation score was determined as 0.106 ± 0.34. Take YDVNGLFTITNPAANYMKPT: the amyloid nucleation score is -1.3 ± 0.34. Substance YDYNCRDVWIWHA gave an amyloid nucleation score of -0.184 ± 0.63. YDYVEGAEPPLGDGCIVVFH registered an amyloid nucleation score of -0.451 ± 0.79.

YECGCHLFD had an amyloid nucleation score of -0.225 ± 0.74. For the substance YELHRNAIPRRRSQDSL, the amyloid nucleation score is -0.81 ± 0.39. With YESLYVKLVAEPQIRCMYYS, the amyloid nucleation score is -0.152 ± 0.34. YEYDLSPCSVVRRVTLKRMV displayed an amyloid nucleation score of 1.55 ± 0.4. The substance YFCSVSRFRVLDSDYYRKGW showed an amyloid nucleation score of -0.817 ± 1.1. YFFFIVLDLYLMSCFGVVCE registered an amyloid nucleation score of -1.13 ± 0.76.

YFGCQMMSN had an amyloid nucleation score of 0.459 ± 0.54. In the case of YFGGLANKMLILSWR, the amyloid nucleation score was 0.294 ± 0.24. As for YFHVVFL, the amyloid nucleation score turned out to be 2.75 ± 0.094. Substance YFIVVFMLSVNKT gave an amyloid nucleation score of 0.06 ± 0.54.

As for YFLLTFDILLCRAFGTAGPE, the amyloid nucleation score entry was “inactive”. Then YFNFDL, with -0.313 ± 0.76; and YFNFIPGANRHDVSHFYGSY, with 0.299 ± 0.21. In turn, YFRCTHYTKTGTLVGDISVC displayed an amyloid nucleation score of -0.657 ± 0.38. YFSCITILGFGSSNSWRRIM registered an amyloid nucleation score of -1.02 ± 0.78. As to YFSYVMSVAATAMLGLVVVR, the amyloid nucleation score came out at 0.189 ± 0.3. YFVPKLYRVSFKLYKWCFKW had an amyloid nucleation score of 0.277 ± 0.64. YFWLVFLKKHRQGLEGKGGW came in with an amyloid nucleation score of 0.004 ± 0.62. The figure for YFWQEIVAFNKVESLILELG is -0.451 ± 1; for YFYRRVCGINAGPQPCLEYV it is -1.27 ± 0.54. For the substance YGESVHTR, the amyloid nucleation score is -0.446 ± 0.38. YGFDLKSGQSADASCASVSG registered an amyloid nucleation score of 0.586 ± 0.31.

For the substance YGFEAFWDNLQPAFTVPRVM, the amyloid nucleation score result was “inactive”.

For YGLLHQFRSCKRI, the amyloid nucleation score is -0.682 ± 0.29. YGMSRNIGAVVWHFCG showed an amyloid nucleation score of -0.368 ± 1. The figure for YGMVIRCPARVCVQTLFNNA is 4.86 ± 0.094. Regarding YGNPRIFIESMKYEVGIRVS, the amyloid nucleation score entry is “inactive”. YGNSYRG registered an amyloid nucleation score of -0.044 ± 0.55.

In turn, YGRIR came in with an amyloid nucleation score of -0.131 ± 0.63. YGRPIIVMYKLLRQNSSSRL registered an amyloid nucleation score of -0.496 ± 0.48. Regarding YGSCGQRKN, the amyloid nucleation score was 0.519 ± 0.3. Then YHSWVGFIRYPIISWGRMMG, with “inactive”. For YHTSQLYWLLRCQSSFNSWG, the amyloid nucleation score came out at 2.48 ± 0.079. YIAYGDFSSFFTLNIS displayed an amyloid nucleation score of 7.476 ± 0.047. Substance YICRNLISESLCLYYTGARG displayed an amyloid nucleation score of 5.03 ± 0.065. YIDLLGRVCHYSLGWLCYCM returned an amyloid nucleation score of -1.05 ± 1.1.

In turn, YILCYTVNCNAELSHLVCDI registered an amyloid nucleation score of 7.154 ± 0.058. Then YIPKLLRCGRGCHYILSYAD, with 0.065 ± 0.62. With YISFSDEVFV, the amyloid nucleation score entry was “inactive”. The figure for YISMSMLGCLRTLREVHRDR is 3.21 ± 0.11; for YIVCLMESIRI it is 3.2 ± 0.17. Turning to YIWNCDSDSIVPLLL, the amyloid nucleation score result was “inactive”.

For YKCDVICCFGIWVLMFEN, the amyloid nucleation score stood at 5.25 ± 0.074. As to YKLTGLDYKWASLNATWETQ, the amyloid nucleation score entry is “inactive”.

Substance YKRLEMLRMSCTIWTITPPR yielded an amyloid nucleation score of 0.234 ± 0.32. Substance YKVYPWLFIYLLLLDRAD had an amyloid nucleation score of -1.45 ± 0.73.

For the substance YKYMGLFSSIFNVLGSLISY, the amyloid nucleation score was -1.95 ± 1.1. With YLDGYSSFTSFEKAMARRCG, the amyloid nucleation score turned out to be 0.305 ± 0.74. YLEFSPTSITWGAPLERYST: the amyloid nucleation score result is “inactive”. On to YLEMMYVAFNFFNGIYCLFY, for which the amyloid nucleation score result is “inactive”. For the substance YLFFYNMSRDRSDTWCEHAV, the amyloid nucleation score came to 3.5 ± 0.094. For YLKDPTFMGVNAFCVVLHFV, the amyloid nucleation score came to 6.01 ± 0.077. The figure for YLLFNLHAVYLLVSGEPSPC is 0.405 ± 0.39. For YLLNLEF, the amyloid nucleation score entry was “inactive”. YLLRNWLPGKVGCHQFLILW yielded an amyloid nucleation score of 0.757 ± 0.39. For YLNYNIMS, the amyloid nucleation score entry was “inactive”.

For YLPTGELIHHYKTSIVLDSA, the amyloid nucleation score was -0.458 ± 0.41. Take YLRLHYAFSGVNNKGIESGC: the amyloid nucleation score result is “inactive”.

In the case of YLSNKT, the amyloid nucleation score was -0.515 ± 0.29. For the substance YLSVPSGQSGGDGFNDESSV, the amyloid nucleation score result was “inactive”. In turn, YLTRAIIVFIS displayed an amyloid nucleation score of 3.66 ± 0.062. YLVDTSCRVGWTDVYFPVRV: the amyloid nucleation score entry is “inactive”. Substance YLYGCGNMVVIWRSGRQMDI had an amyloid nucleation score of -1.42 ± 0.49. As to YMFNSWYGLSSLWGKSKKMS, the amyloid nucleation score is -0.538 ± 0.26. On to YMKKSMF, for which the amyloid nucleation score was -0.095 ± 1.1. Regarding YMLMREASGLLRPGAEMWFN, the amyloid nucleation score was -0.177 ± 0.45.

With YMMSRASSVIIEREYK, the amyloid nucleation score was determined as 0.479 ± 0.74. In the case of YMPPSCMSP, the amyloid nucleation score result was “inactive”. The substance YMSGILASIRKSILQGRSRE showed an amyloid nucleation score of -1.41 ± 0.49. Take YMTSD: the amyloid nucleation score was -0.464 ± 0.41. As to YMVCLRSGSIPVIDLPWYSL, the amyloid nucleation score was -0.12 ± 1.
